Results reported in patent publication US20180037623A1.

Target: FGF23 receptor
Test: cell-based or functional assay

- Egr-1-luciferase reporter activity, fold change at about 0.6 nM purified fusion, with heparin (20 µg/ml): 2 fold change
- Egr-1-luciferase reporter activity, fold change at about 1.21 nM purified fusion, no heparin: 1.2 fold change
- Egr-1-luciferase reporter activity, fold change at about 19.3 nM purified fusion, no heparin: 2.4 fold change
Substance: sKlotho-FGF23-6×His fusion polypeptide
